Test [1] has as its target Cry1Ia38 protoxin (Bacillus thuringiensis). The test can be described thus: SDS-PAGE under non-denaturing conditions; SDS-12%PAGE of SEC peak fractions; loading buffer without SDS or β-mercaptoethanol, heated at 50 °C for 3 min to preserve oligomers.
Test [2] shares this target. The test can be described thus: SEC; Superdex-200 10/300 GL on an ÄKTA Explorer 100; sizes interpolated from protein standards (44-669 kDa); purified proteins loaded. (SEC sorts molecules by how far they enter the pores of the column.)
Test [3] has as its target Cry1Ia gut fluid intermediate (GF-Int) (Bacillus thuringiensis). Kind of test: SEC.
Test [4] addresses Cry1Ia trypsin intermediate (T-Int) (Bacillus thuringiensis). Kind of test: SDS-PAGE under non-denaturing conditions; SDS-12%PAGE of SEC peak fractions; loading buffer without SDS or β-mercaptoethanol, heated at 50 °C for 3 min to preserve oligomers.
Test [5] has the same target. Kind of test: SEC.
Test [6] concerns the target fully trypsinized Cry1Ia protein (toxin) (Bacillus thuringiensis). The test can be described thus: SEC; Superdex-200 10/300 GL on an ÄKTA Explorer 100; sizes interpolated from protein standards (44-669 kDa); purified proteins loaded.

Usually stoichiometry N stands for the number of molecules, sites or subunits per partner or assembly. Regarding Cry1Ia38 protoxin (natural protein), the stoichiometry N in test [1] and in test [2] was 2 each time.
In turn, “Cry1Ia gut fluid intermediate (GF-Int) (domain or fragment)” had a stoichiometry N in test [3] of 2.
On to “Cry1Ia trypsin intermediate (T-Int) (domain or fragment)”, for which the stoichiometry N in test [4] and in test [5] was 2 each time.
“fully trypsinized Cry1Ia protein (toxin) (domain or fragment)”: the stoichiometry N in test [6] was determined as 2.

The values are drawn from paper PMC11860814.
